Assay results taken from the supplement of paper PMC5998384.

System: HeLa Kyoto
Assay: melting temperature (median over replicates), in situ; higher = more thermally stable
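Further: HeLa Kyoto cells synchronized by double thymidine or nocodazole block, proteins quantified by TMT10plex mass spectrometry, three independent biological replicates.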

DESI2, sequence (chain, as listed by the source): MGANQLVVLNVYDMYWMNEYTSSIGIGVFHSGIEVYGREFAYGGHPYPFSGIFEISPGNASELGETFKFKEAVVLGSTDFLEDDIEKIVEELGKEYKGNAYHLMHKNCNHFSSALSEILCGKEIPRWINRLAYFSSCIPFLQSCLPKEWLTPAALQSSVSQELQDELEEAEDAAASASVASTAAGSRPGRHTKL

| Substance | melting temperature (cell cycle stage: G1/S) [°C] | melting temperature (cell cycle stage: mitosis) [°C] |
| --- | --- | --- |
| MASLKCSTVVCVICLEKPKYRCPACRVPYCSVVCFRKHKEQCNPETRPVEKKIRSALPTKTVKPVENKDDDDSIADFLNSDEEEDRVSLQNLKNLGESATLRSLLLNPHLRQLMVNLDQGEDKAKLMRAYMQEPLFVEFADCCLGIVEPSQNEES [ZNHIT3] | 50.4 | 52.7 |
| MAQEVDTAQGAEMRRGAGAARGRASWCWALALLWLAVVPGWSRVSGIPSRRHWPVPYKRFDFRPKPDPYCQAKYTFCPTGSPIPVMEGDDDIEVFRLQAPVWEFKYGDLLGHLKIMHDAIGFRSTLTGKNYTMEWYELFQLGNCTFPHLRPEMDAPFWCNQGAACFFEGIDDVHWKENGTLVQVATISGNMFNQMAKWVKQDNETGIYYETWNVKASPEKGAETWFDSYDCSKFVLRTFNKLAEFGAEFKNIETNYTRIFLYSGEPTYLGNETSVFGPTGNKTLGLAIKRFYYPFKPHLPTKEFLLSLLQIFDAVIVHKQFYLFYNFEYWFLPMKFPFIKITYEEIPLPIRNKTLSGL [CLN5] | – | 53.8 |
| MSSHKGSVVAQGNGAPASNREADTVELAELGPLLEEKGKRVIANPPKAEEEQTCPVPQEEEEEVRVLTLPLQAHHAMEKMEEFVYKVWEGRWRVIPYDVLPDWLKDNDYLLHGHRPPMPSFRACFKSIFRIHTETGNIWTHLLGFVLFLFLGILTMLRPNMYFMAPLQEKVVFGMFFLGAVLCLSFSWLFHTVYCHSEKVSRTFSKLDYSGIALLIMGSFVPWLYYSFYCSPQPRLIYLSIVCVLGISAIIVAQWDRFATPKHRQTRAGVFLGLGLSGVVPTMHFTIAEGFVKATTVGQMGWFFLMAVMYITGAGLYAARIPERFFPGKFDIWFQSHQIFHVLVVAAAFVHFYGVSNLQEFRYGLEGGCTDDTLL [ADIPOR1] | 55.6 | – |
| MAGAGSAAVSGAGTPVAGPTGRDLFAEGLLEFLRPAVQQLDSHVHAVRESQVELREQIDNLATELCRINEDQKVALDLDPYVKKLLNARRRVVLVNNILQNAQERLRRLNHSVAKETARRRAMLDSGIYPPGSPGK [SNAPIN] | 53 | 54.5 |
| MSLCSPTHSAEMSLFLQGPEEMLPLSSEGSEMGSEKEQSPEPHLPEEGEGGKPWRVDDSEGSWIPPGEKEHGQESLSDELQETHPKKPWQKVTVRARELGDPIAHPRHEADEKPFICAQCGKTFNNTSNLRTHQRIHTGEKPYKCSECGKSFSRSSNRIRHERIHLEEKHYKCPKCQESFRRRSDLTTHQQDHLGKRPYRCDICGKSFSQSATLAVHHRTHLEPAPYICCECGKSFSNSSSFGVHHRTHTGERPYECTECGRTFSDISNFGAHQRTHRGEKPYRCTVCGKHFSRSSNLIRHQKTHLGEQAGKDSS [ZNF691] | 54.9 | 53.1 |
| MASGGGGGNTGAGGGPGMGLSLGLGLGLSLGMSEATSEAEEEAATAEAVGRLATTLWLRLRGWEAVLAAAQRLLVWEKPLHSLVTAAALNGLFWLLSSSSLRPFFLLSVSLLAYFLLDLWQPRFLPDVSASSPEEPHSDSEGAGSGARPHLLSVPELCRYLAESWLTFQIHLQELLQYKRQNPAQFCVRVCSGCAVLAVLGHYVPGIMISYIVLLSILLWPLVVYHELIQRMYTRLEPLLMQLDYSMKAEANALHHKHDKRKRQGKNAPPGGDEPLAETESESEAELAGFSPVVDVKKTALALAITDSELSDEEASILESGGFSVSRATTPQLTDVSEDLDQQSLPSEPEETLSRDLGEGEEGELAPPEDLLGRPQALSRQALDSEEEEEDVAAKETLLRLSSPLHFVNTHFNGAGSPPDGVKCSPGGPVETLSPETVSGGLTALPGTLSPPLCLVGSDPAPSPSILPPVPQDSPQPLPAPEEEEALTTEDFELLDQGELEQLNAELGLEPETPPKPPDAPPLGPDIHSLVQSDQEAQAVAEP [FAM134A] | – | 55.2 |
| DESI2 | 53.8 | – |
